These results are taken from patent US7109167.

Positions of bridges follow the written chain, without caps; N, C: chain ends. No end group written: not given here.

Assay [1] deals with endothelial cell receptor for TKPPR on human aortic endothelial cells (HAEC). In words: fluorescent beads on confluent HAEC, static, Experiment 1, image analysis.
Assay [2] shares this target. In words: competition on HAEC: tuftsin 50 µM against 1% BRU-114 bubbles.
The target is the same in assay [3]. In words: competition on HAEC: tuftsin 100 µM against 1% BRU-114 bubbles.
Assay [4] shares this target. Briefly: competition on HAEC: tuftsin 10 µM against 1% BRU-114 bubbles.
The target is the same in assay [5]. In words: competition on HAEC: tuftsin 25 µM against 1% BRU-114 bubbles.
Assay [6] has the same target. In words: competition on HAEC: tuftsin 5 µM against 1% BRU-114 bubbles.
A further assay concerns the target VEGF receptors on HUVECs. Briefly: competition of 125I-VEGF binding to HUVECs.
In assay [7] the target is endothelial cell receptor for TKPPR on human aortic endothelial cells (HAEC). In words: competition on HAEC: BRU-305 50 µM against 2% BRU-114 bubbles.
The target is the same in assay [8]. In words: competition on HAEC: BRU-305 200 µM against 2% BRU-114 bubbles.
Assay [9] shares this target. Briefly: competition on HAEC: BRU-305 100 µM against 2% BRU-114 bubbles.
Assay [10] shares this target. In words: competition on HAEC: BRU-306 200 µM against 2% BRU-114 bubbles.
Assay [11] shares this target. Briefly: competition on HAEC: BRU-306 100 µM against 2% BRU-114 bubbles.
Assay [12] has the same target. In words: competition on HAEC: BRU-306 50 µM against 2% BRU-114 bubbles.
The target is the same in assay [13]. Briefly: beads perfused over HAEC in a parallel plate flow cell, 1.53 dynes/cm^2.
Assay [14] has the same target. In words: competition on HAEC: free TKPPR 25 µM against 1% BRU-114 bubbles, average of two.
Assay [15] has the same target. In words: competition on HAEC: free TKPPR 10 µM against 1% BRU-114 bubbles, average of two.
Assay [16] has the same target. Briefly: competition on HAEC: free TKPPR 2.5 µM against 1% BRU-114 bubbles, average of two.
For assay [17] the target is unchanged. In words: competition on HAEC: free TKPPR 50 µM against 1% BRU-114 bubbles.
Assay [18] has the same target. Briefly: competition on HAEC: free TKPPR 200 µM against 10% BRU-114 bubbles.
Assay [19] shares this target. In words: competition on HAEC: free TKPPR 200 µM against TKPPR-beads, average n = 11.
Assay [20] shares this target. Briefly: competition on HAEC: free TKPPR 50 µM against 1% BRU-292 bubbles, average of two.
Assay [21] has the same target. Briefly: competition on HAEC: free TKPPR 200 µM against 5% BRU-114 bubbles.
The target is the same in assay [22]. In words: competition on HAEC: free TKPPR 500 µM against TKPPR-beads, average n = 11.
Assay [23] shares this target. Briefly: competition on HAEC: free TKPPR 50 µM against 1% BRU-114 bubbles, average of two.
For assay [24] the target is unchanged. Briefly: competition on HAEC: free TKPPR (head: 100 µmol; text: 100 µM) against 1% BRU-114 bubbles.
Assay [25] shares this target. In words: competition on HAEC: free TKPPR 200 µM against 1% BRU-114 bubbles.
Assay [26] has the same target. In words: competition on HAEC: free TKPPR 50 µM against 10% BRU-114 bubbles.
Assay [27] shares this target. In words: competition on HAEC: free TKPPR 50 µM against TKPPR-beads, average n = 11.
For assay [28] the target is unchanged. In words: competition on HAEC: free TKPPR 25 µM against TKPPR-beads, average n = 11.
Assay [29] shares this target. In words: competition on HAEC: free TKPPR 10 µM against TKPPR-beads, average n = 11.
Assay [30] has the same target. Briefly: competition on HAEC: free TKPPR 100 µM against TKPPR-beads, average n = 11.
For assay [31] the target is unchanged. Briefly: competition on HAEC: free TKPPR 25 µM against 1% BRU-292 bubbles, average of two.
In assay [32] the target is receptor for TKPPR on rabbit aortic endothelial cells (RAEC). Briefly: competition on RAEC: free TKPPR 100 µM against 5% BRU-114 bubbles.
For assay [33], the target named is endothelial cell receptor for TKPPR on human aortic endothelial cells (HAEC). In words: competition on HAEC: free TKPPR 10 µM against 10% BRU-114 bubbles.
Assay [34] has the same target. In words: competition on HAEC: free TKPPR 2.5 µM against 1% BRU-292 bubbles, average of two.
For assay [35] the target is unchanged. In words: competition on HAEC: free TKPPR 100 µM against 10% BRU-114 bubbles.
Assay [36] shares this target. In words: competition on HAEC: free TKPPR 100 µM against 1% BRU-114 bubbles.
The target is the same in assay [37]. In words: competition on HAEC: free TKPPR 10 µM against 5% BRU-114 bubbles.
The target is the same in assay [38]. Briefly: competition on HAEC: free TKPPR (head: 100 µmol; text: 100 µM) against 5% BRU-114 bubbles.
Assay [39] has the same target. In words: competition on HAEC: free TKPPR 50 µM against 5% BRU-114 bubbles.
Assay [40] shares this target. In words: competition on HAEC: free TKPPR (head: 10 µmol; text: 10 µM) against 5% BRU-114 bubbles.
Assay [41] shares this target. In words: competition on HAEC: free TKPPR 100 µM against 5% BRU-114 bubbles.
For assay [42] the target is unchanged. In words: competition on HAEC: free TKPPR 25 µM against 1% BRU-114 bubbles.
The target is the same in assay [43]. In words: competition on HAEC: free TKPPR 5 µM against 1% BRU-114 bubbles.
Assay [44] has the same target. In words: competition on HAEC: free TKPPR 10 µM against 1% BRU-114 bubbles.
For assay [45] the target is unchanged. Briefly: competition on HAEC: free TKPPR 10 µM against 1% BRU-292 bubbles, average of two.
The target is the same in assay [46]. Briefly: competition on HAEC: free TKPPR 25 µM against 2% BRU-114 bubbles.
Assay [47] has the same target. Briefly: competition on HAEC: free TKPPR (head: 10 µmol; text: 10 µM) against 1% BRU-114 bubbles.

B1: GRGDSP-conjugated fluorescent microspheres (peptide)
peptide: GRGDSP
modifications: also: coupled by EDAC to carboxylate-modified microspheres
On to B1, for which the Integrated density of bound beads (arbitrary units) in assay [1] is 28.6.

B2: Tuftsin (TKPR) (peptide)
peptide: TKPR
Regarding B2, the Bubbles Bound in [2] was determined as 904 bubbles; in assay [3], 556 bubbles; in assay [4] it was 976 bubbles; in assay [5], 1170 bubbles; in [6] it was 1150 bubbles.

B3: TKPPR tetramer BRU-326, OG-(TKPPR)4 (peptide)
peptide: TKPPR-OH
modifications: not fully specified (N-terminus); printed as OG-(TKPPR)4; also: tetramer: four TKPPR chains joined via branched tetra-acid scaffold
Take B3: the IC50 (in general, the concentration at which inhibition is half-maximal) in the assay with VEGF receptors on HUVECs amounted to 10 µM.

B4: Linear CTKPPRC (BRU-305) (peptide)
peptide: CTKPPRC
Take B4: the Bubbles Bound % in assay [7] is 97 % of control; in [8] it was 88 % of control; in [9] it was 78 % of control.

B5: Cyclic disulfide CTKPPRC (BRU-306) (peptide)
peptide: CTKPPRC-OH
modifications: disulfide 1-7 (inferred)
As to B5, the results for the Bubbles Bound % in assay [10], in [11] and in assay [12] were 99 % of control, 71 % of control and 97 % of control, respectively.

B6: TKPPR-conjugated red fluorescent microspheres (peptide)
peptide: TKPPR
modifications: also: coupled by EDAC to carboxylate-modified microspheres
B6: the Integrated density of bound beads (arbitrary units) in [1] came out at 230. In addition, in assay [13], the beads bound at 1.53 dynes/cm^2 was 86 beads.

B7: TKPPR (L-threonyl-L-lysyl-L-prolyl-L-prolyl-L-arginine), free monomeric peptide (peptide)
peptide: TKPPR-OH
Take B7: the Bubbles Bound-BRU-114 Formulation in assay [14] turned out to be 75 bubbles; in assay [15], 535 bubbles; in assay [16] it was 1240 bubbles; in assay [23] it was 9 bubbles. Besides, the Average % Inhibition in [17] was found to be 92.7%; in assay [36], 93.7%; in [42], 82%; in assay [43], 45.7%; in assay [44], 79.6%. Besides, the Bubbles Bound was found to be 56 bubbles in assay [17]; 5 bubbles in assay [24]; 17 bubbles in assay [36]; 62 bubbles in [38]; 865 bubbles in [40]; 106 bubbles in assay [42]. Besides, the figures for the Bubbles Bound in assay [43], in assay [44] and in [47] were 790 bubbles, 528 bubbles and 96 bubbles, respectively. In addition, the Bubbles Bound-1% in assay [17] came to 5 bubbles; in assay [25] it was 4 bubbles; in assay [36], 4 bubbles; in assay [44] it was 10 bubbles. For the same molecule, the Bubbles Bound-10% in [18] came to 66 bubbles; in [26] it was 857 bubbles; in assay [33], 1090 bubbles; in [35], 399 bubbles. Moreover, the % Inhibition – broadly, the change of the read-out against control, counted positive when it falls – is 72.2% in [19]; 70.6% in assay [22]; 50.5% in assay [27]; 50.7% in assay [28]; 30.8% in assay [29]; 62% in [30]. For the same molecule, the Bubbles Bound-BRU-292 Formulation in assay [20] stood at 462 bubbles; in assay [31] it was 718 bubbles; in [34], 888 bubbles; in assay [45], 833 bubbles. Besides, the Bubbles Bound-5% in assay [21] turned out to be 13 bubbles; in [37] it was 1340 bubbles; in [39], 440 bubbles; in assay [41], 12 bubbles. Moreover, in assay [32], the RAEC bubbles bound amounted to 21 bubbles. This molecule also yielded a % more bubbles bound than without competitor in [37] of 19%. This molecule displayed an IC50 with VEGF receptors on HUVECs of 250 µM. In assay [41], this molecule returned an HAEC bubbles bound of 58 bubbles. This molecule also registered a % inhibition of bubble binding in assay [44] of 82.7%. Also, the Bubbles Bound % in assay [46] is 16 % of control.
